The target of test [1] is T1, cy-IL-36γ-Avi (in-vivo biotinylated) (cynomolgus monkey, limits assumed, site-specifically biotinylated in vivo on the C-terminal AviTag (BirA)).
T1 construct: also called biotinylated cyno IL-36γ-Avi
T1 chain: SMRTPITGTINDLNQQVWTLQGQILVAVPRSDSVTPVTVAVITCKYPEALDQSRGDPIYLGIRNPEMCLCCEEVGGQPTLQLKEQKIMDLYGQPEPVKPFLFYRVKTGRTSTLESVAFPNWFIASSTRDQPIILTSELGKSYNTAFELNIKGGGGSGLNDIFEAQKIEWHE
The experiment in a line: SPR (Biacore 8K), in-vivo biotinylated IL-36-Avi captured on CAP chip, bispecific IgG injected, 37°C. The procedure:
(§1) Surface plasmon resonance (SPR) analysis was used to determine the binding affinity for human and cynomolgus monkey IL-36 (“hu-IL-36” and “cy-IL-36,” respectively) using a BIACORE™ 8K instrument as described in Example 2. […] Briefly, a 1:4 dilution of Biotin CAPture Reagent (GE Healthcare) into HBS-EP buffer (0.01 M HEPES pH 7.4, 0.15 M NaCl, 3 mM EDTA, 0.005% Surfactant P20) was applied to a CAP sensor chip at 2 μL/min flow rate. For kinetics measurements, 1 nM biotinylated human and cyno IL-36α-Avi, IL-36γ-Avi; 0.8 nM biotinylated human and cyno IL-36β-Avi were captured at 10 μL/min to achieve 15-25 response units in the second flow cell (FC2). FC1 was kept as a reference. […] The sensorgram was recorded and subject to reference and buffer subtraction before data analysis with the BIACORE® 8K Evaluation Software (version 1.1.1.7442). […] Association rates (kₒₙ) and dissociation rates (koff) were calculated using a simple one-to-one Langmuir binding model. The equilibrium dissociation constant (KD) was calculated as the ratio of koff/kₒₙ.
A general note: In SPR one partner is held on a chip, and binding of the other changes the refractive index at the surface.

In test [2] the target is T2, hu-IL-36γ-Avi (in-vivo biotinylated) (human, site-specifically biotinylated in vivo on the C-terminal AviTag (BirA)).
T2 construct: also called biotinylated human IL-36γ-Avi
T2 chain: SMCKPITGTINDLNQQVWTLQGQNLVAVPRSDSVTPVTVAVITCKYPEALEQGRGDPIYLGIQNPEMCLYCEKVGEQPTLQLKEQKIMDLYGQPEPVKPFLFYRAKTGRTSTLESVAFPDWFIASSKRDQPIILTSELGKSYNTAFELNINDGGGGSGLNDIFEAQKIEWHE
Described as above. As to the method:
as §1

The target in test [3] is T3, cy-IL-36α-Avi (in-vivo biotinylated) (cynomolgus monkey, limits assumed, site-specifically biotinylated in vivo on the C-terminal AviTag (BirA)).
T3 construct: also called biotinylated cyno IL-36α-Avi
T3 chain: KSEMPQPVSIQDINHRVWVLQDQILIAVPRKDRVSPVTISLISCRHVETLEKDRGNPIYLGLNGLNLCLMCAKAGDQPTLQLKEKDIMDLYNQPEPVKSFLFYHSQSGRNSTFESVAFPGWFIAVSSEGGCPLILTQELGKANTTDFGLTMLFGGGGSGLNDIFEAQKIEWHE
The description is as above. As to the method:
as §1

The target of test [4] is T4, cy-IL-36β-Avi (in-vivo biotinylated) (cynomolgus monkey, site-specifically biotinylated in vivo on the C-terminal AviTag (BirA)).
T4 construct: also called cy-IL-36J-Avi [sic]; biotinylated cyno IL-36β-Avi
T4 chain: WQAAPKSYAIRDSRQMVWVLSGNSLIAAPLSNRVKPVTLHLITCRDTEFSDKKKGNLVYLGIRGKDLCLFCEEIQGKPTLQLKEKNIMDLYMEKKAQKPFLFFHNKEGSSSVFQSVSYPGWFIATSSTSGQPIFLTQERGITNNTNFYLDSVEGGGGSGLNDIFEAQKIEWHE
Described as above. The procedure:
as §1

Test [5] concerns the target T5, hu-IL-36α-Avi (in-vivo biotinylated) (human, site-specifically biotinylated in vivo on the C-terminal AviTag (BirA)).
T5 construct: also called biotinylated human IL-36α-Avi
T5 chain: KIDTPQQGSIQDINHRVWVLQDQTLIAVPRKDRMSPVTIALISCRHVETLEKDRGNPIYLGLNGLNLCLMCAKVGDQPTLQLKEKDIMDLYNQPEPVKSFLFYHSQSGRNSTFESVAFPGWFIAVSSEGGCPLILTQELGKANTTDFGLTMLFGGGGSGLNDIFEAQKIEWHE
Described as above. As to the method:
as §1

Test [6] deals with T6, hu-IL-36β-Avi (in-vivo biotinylated) (human, site-specifically biotinylated in vivo on the C-terminal AviTag (BirA)).
T6 construct: also called biotinylated human IL-36β-Avi
T6 chain: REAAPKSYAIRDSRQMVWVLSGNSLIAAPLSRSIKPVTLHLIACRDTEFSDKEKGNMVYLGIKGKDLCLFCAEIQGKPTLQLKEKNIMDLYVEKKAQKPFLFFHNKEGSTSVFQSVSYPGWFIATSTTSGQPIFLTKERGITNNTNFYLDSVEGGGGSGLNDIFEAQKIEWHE
The description is as above. The procedure:
as §1

Test [7] concerns the target T4, cy-IL-36β-Avi (in-vivo biotinylated). The experiment in a line: SPR (Biacore 8K), in-vivo biotinylated IL-36-Avi captured on CAP chip, bispecific IgG injected, 25°C. As to the method:
as §1

Test [8] has as its target T5, hu-IL-36α-Avi (in-vivo biotinylated). Described as above. As to the method: as §1

This note sets out measurements from US20230235040A1 (ALMIRALL S A, published 2023).

B1: mAb2.10/mAb6_2.7 multispecific common light chain antibody (IgG, knobs-into-holes, N297G) (bispecific antibody)
heavy 1: not shown
heavy 2: not shown
light: ESVLTQPPSVSGAPGQRVTISCTGSSSNIGAHYDVHWYQQLPGTAPKLLIYGNDNRPSGVPDRFSGSKSGTSASLAITGLQAEDEADYYCQSYDYSLSGYVFGGGTKLTVLGQPKAAPSVTLFPPSSEELQANKATLVCLISDFYPGAVTVAWKADSSPVKAGVETTTPSKQSNNKYAASSYLSLTPEQWKSHKSYSCQVTHEGSTVEKTVAPTECS
notes: tags removed; also called mAb2.10/mAb6_2.7 IgG; anti-IL-36 multispecific antibody
What is called Kd is the free concentration of one partner at which half of the binding sites on the other are occupied at equilibrium, for simple one-to-one binding. A higher Kd goes with lower affinity. A word on the koff: it is the first-order rate constant of dissociation. A higher koff goes with a short-lived complex. Usually kon stands for the second-order rate constant of association. A high value points to fast association. As to B1, the equilibrium dissociation constant (Kd) in test [1] came to 0.94 nM; in test [2] it was 1.63 nM; in test [3] it was 2.57 nM; in test [4], 2.51 nM; in test [5] it was 1.95 nM; in test [6], 1.84 nM. In addition, the Kd in test [7] turned out to be 0.97 nM; in test [8], 1.17 nM. Further, the koff came to 0.000148 s⁻¹ in test [1]; 0.000341 s⁻¹ in test [2]; 0.000625 s⁻¹ in test [3]; 0.000218 s⁻¹ in test [4]; 0.000434 s⁻¹ in test [5]; 0.000168 s⁻¹ in test [6]. For the same molecule, the dissociation rate constant (koff) in test [7] was 6.32e-05 s⁻¹; in test [8] it was 0.000157 s⁻¹. In addition, the association rate constant (kon) in test [1] stood at 158000 M⁻¹ s⁻¹; in test [2], 210000 M⁻¹ s⁻¹; in test [3], 243000 M⁻¹ s⁻¹; in test [4], 86900 M⁻¹ s⁻¹; in test [5], 223000 M⁻¹ s⁻¹; in test [6], 91400 M⁻¹ s⁻¹. For the same molecule, the kon in test [7] is 65200 M⁻¹ s⁻¹; in test [8], 134000 M⁻¹ s⁻¹.
